B1: SMOC2 (parent)
chain: DCAGSPQKPLCASDGRTFLSRCEF

Variants of: B1
Experiment: protein stability index of a GFP-peptide fusion (GPS, HEK-293T) (PSI 1-6); higher = more stable
Conditions: c terminus: a fixed tail appended
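Also: lentivirally expressed fusions sorted by FACS into six bins by GFP to DsRed ratio, PSI derived from sequencing read proportions per bin multiplied by bin number.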

Variant	protein stability index
DCAGSPQKPLCASDTRTFLSRCEF [G15T]	2.65
DCAGSPQKPLCASDIRTFLSRCEF [G15I]	2.76
DCAGSPQKPLCASDWRTFLSRCEF [G15W]	2.06
DCAGSPQKPLCASDHRTFLSRCEF [G15H]	2.27
DCAGSPQKPLCASDARTFLSRCEF [G15A]	4.08
DCAGSPQKPLCASDPRTFLSRCEF [G15P]	3
DCAGSPQKPLCASDDRTFLSRCEF [G15D]	3.49
DCAGSPQKPLCASDFRTFLSRCEF [G15F]	2.42
DCAGSPQKPLCASDNRTFLSRCEF [G15N]	3.01
DCAGSPQKPLCASDERTFLSRCEF [G15E]	4.05
DCAGSPQKPLCASDMRTFLSRCEF [G15M]	2.81
DCAGSPQKPLCASDSRTFLSRCEF [G15S]	2.5
DCAGSPQKPLCASDRRTFLSRCEF [G15R]	2.83
DCAGSPQKPLCASDCRTFLSRCEF [G15C]	1.99
DCAGSPQKPLCASDQRTFLSRCEF [G15Q]	2.57
DCAGSPQKPLCASDKRTFLSRCEF [G15K]	2.3
DCAGSPQKPLCASDLRTFLSRCEF [G15L]	2.17
DCAGSPQKPLCASDVRTFLSRCEF [G15V]	2.03
DCAGSPQKPLCASDYRTFLSRCEF [G15Y]	2.81
DCAGSPQKPLCASDGRTFLERCEF [S20E]	2.93
DCAGSPQKPLCASDGRTFLARCEF [S20A]	2.85
DCAGSPQKPLCASDGRTFLQRCEF [S20Q]	2.97
DCAGSPQKPLCASDGRTFLNRCEF [S20N]	3.64
DCAGSPQKPLCASDGRTFLCRCEF [S20C]	2.86

Variant	protein stability index
DCAGSPQKPLCASDGRTFLHRCEF [S20H]	2.68
DCAGSPQKPLCASDGRTFLDRCEF [S20D]	4.1
DCAGSPQKPLCASDGRTFLWRCEF [S20W]	3.01
DCAGSPQKPLCASDGRTFLFRCEF [S20F]	1.25
DCAGSPQKPLCASDGRTFLVRCEF [S20V]	3.04
DCAGSPQKPLCASDGRTFLRRCEF [S20R]	3.23
DCAGSPQKPLCASDGRTFLIRCEF [S20I]	3.04
DCAGSPQKPLCASDGRTFLYRCEF [S20Y]	1.9
DCAGSPQKPLCASDGRTFLKRCEF [S20K]	3.04
DCAGSPQKPLCASDGRTFLLRCEF [S20L]	3.1
DCAGSPQKPLCASDGRTFLMRCEF [S20M]	1.41
DCAGSPQKPLCASDGRTFLPRCEF [S20P]	3.59
DCAGSPQKPLCASDGRTFLGRCEF [S20G]	2.17
DCAGSPQKPLCASDGRDFLSRCEF [T17D]	3.12
DCAGSPQKPLCASDGRQFLSRCEF [T17Q]	3.7
DCAGSPQKPLCASDGRFFLSRCEF [T17F]	2.32
DCAGSPQKPLCASDGRYFLSRCEF [T17Y]	2.77
DCAGSPQKPLCASDGREFLSRCEF [T17E]	3.82
DCAGSPQKPLCASDGRRFLSRCEF [T17R]	2.47
DCAGSPQKPLCASDGRGFLSRCEF [T17G]	3.97
DCAGSPQKPLCASDGRWFLSRCEF [T17W]	1.29
DCAGSPQKPLCASDGRPFLSRCEF [T17P]	3.4
DCAGSPQKPLCASDGRNFLSRCEF [T17N]	3.27
DCAGSPQKPLCASDGRIFLSRCEF [T17I]	2.33

Variant	protein stability index
DCAGSPQKPLCASDGRHFLSRCEF [T17H]	3.45
DCAGSPQKPLCASDGRMFLSRCEF [T17M]	3.31
DCAGSPQKPLCASDGRLFLSRCEF [T17L]	2.11
DCAGSPQKPLCASDGRSFLSRCEF [T17S]	2.66
DCAGSPQKPLCASDGRCFLSRCEF [T17C]	2.04
DCAGSPQKPLCASDGRKFLSRCEF [T17K]	3.44
DCAGSPQKPLCASDGRVFLSRCEF [T17V]	2.22
DCAGSPQKPLCASDGRAFLSRCEF [T17A]	2.83
DCAGSPQKPLCASDGATFLSRCEF [R16A]	2.99
DCAGSPQKPLCASDGKTFLSRCEF [R16K]	3.29
DCAGSPQKPLCASDGCTFLSRCEF [R16C]	2.33
DCAGSPQKPLCASDGGTFLSRCEF [R16G]	3.4
DCAGSPQKPLCASDGDTFLSRCEF [R16D]	4.12
DCAGSPQKPLCASDGITFLSRCEF [R16I]	2.4
DCAGSPQKPLCASDGSTFLSRCEF [R16S]	3.08
DCAGSPQKPLCASDGTTFLSRCEF [R16T]	3.39
DCAGSPQKPLCASDGETFLSRCEF [R16E]	4.14
DCAGSPQKPLCASDGNTFLSRCEF [R16N]	3.61
DCAGSPQKPLCASDGWTFLSRCEF [R16W]	1.72
DCAGSPQKPLCASDGVTFLSRCEF [R16V]	2.77
DCAGSPQKPLCASDGQTFLSRCEF [R16Q]	3.19
DCAGSPQKPLCASDGYTFLSRCEF [R16Y]	2.33
DCAGSPQKPLCASDGFTFLSRCEF [R16F]	1.35
DCAGSPQKPLCASDGPTFLSRCEF [R16P]	3.43

Variant	protein stability index
DCAGSPQKPLCASDGLTFLSRCEF [R16L]	2.5
DCAGSPQKPLCASDGHTFLSRCEF [R16H]	3.97
DCAGSPQKPLCASDGMTFLSRCEF [R16M]	2.88
DCAGSPQKPLCASDGRTFLSRDEF [C22D]	4.81
DCAGSPQKPLCASDGRTFLSRAEF [C22A]	3.86
DCAGSPQKPLCASDGRTFLSKCEF [R21K]	2.67
DCAGSPQKPLCASDGRTFLSGCEF [R21G]	4.57
DCAGSPQKPLCASDGRTFLSACEF [R21A]	2.71
DCAGSPQKPLCASDGRTFLSHCEF [R21H]	3.26
DCAGSPQKPLCASDGRTFLSWCEF [R21W]	1.76
DCAGSPQKPLCASDGRTFLSCCEF [R21C]	2.44
DCAGSPQKPLCASDGRTFLSICEF [R21I]	1.67
DCAGSPQKPLCASDGRTFLSMCEF [R21M]	1.68
DCAGSPQKPLCASDGRTFLSDCEF [R21D]	4.14
DCAGSPQKPLCASDGRTFLSQCEF [R21Q]	3.1
DCAGSPQKPLCASDGRTFLSLCEF [R21L]	3.02
DCAGSPQKPLCASDGRTFLSECEF [R21E]	3.62
DCAGSPQKPLCASDGRTFLSTCEF [R21T]	1.9
DCAGSPQKPLCASDGRTFLSNCEF [R21N]	3.78
DCAGSPQKPLCASDGRTFLSYCEF [R21Y]	2.27
DCAGSPQKPLCASDGRTFLSVCEF [R21V]	2.65
DCAGSPQKPLCASDGRTFLSFCEF [R21F]	2.02
